Data taken from the supplement of paper PMC7125110.
± gives the standard error. For some assays here: This sample holds only a part of the variants without activity.

B1: glmS ribozyme (parent)
chain: AUAAAAGCGCCAGAACUACAGAAAUGUAGUUGACGAGGAGGAGGUUUAUCGAAUUUUCGGCGGAUGCCUCCAAA

Tests used:
Settings in all cases: with glucosamine-6-phosphate
glucosamine-6-phosphate [1] = variants of: B1; assay: kcat; higher = faster cleavage; RNA array
In short: (§1)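 E. coli RNA polymerase transcribed barcoded ribozyme variants in situ on sequenced MiSeq chips, which were tracked via a hybridised Cy3 probe at 37 °C. Tiles were imaged over ~14 h after glucosamine-6-phosphate (40 μM to 10 mM) in HEPES/KCl/Mg(OAc)2 buffer was flowed in. Normalised per-tile medians were fit to one- or two-exponential decays for kobs, and kcat and KM came from weighted Michaelis–Menten fits.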

glucosamine-6-phosphate [2] = variants of: B1; assay: KM; higher = weaker cofactor use; RNA array
In short: as §1

glucosamine-6-phosphate [3] = variants of: B1; assay: self-cleavage kobs at 160 uM GlcN6P; higher = faster cleavage; RNA array
In short: as §1

glucosamine-6-phosphate [4] = variants of: B1; assay: self-cleavage kobs at 640 uM GlcN6P; higher = faster cleavage; RNA array
In short: as §1

glucosamine-6-phosphate [5] = variants of: B1; assay: self-cleavage kobs at 2500 uM GlcN6P; higher = faster cleavage; RNA array
In short: as §1

glucosamine-6-phosphate [6] = variants of: B1; assay: self-cleavage kobs at 10000 uM GlcN6P; higher = faster cleavage; RNA array
In short: as §1

glucosamine-6-phosphate [7] = variants of: B1; assay: self-cleavage kobs at 40 uM GlcN6P; higher = faster cleavage; RNA array
In short: as §1

Variant | kcat (glucosamine-6-phosphate [1]) [s⁻¹] | KM (glucosamine-6-phosphate [2]) [µM] | self-cleavage kobs at 160 uM GlcN6P (glucosamine-6-phosphate [3]) [s⁻¹] | self-cleavage kobs at 640 uM GlcN6P (glucosamine-6-phosphate [4]) [s⁻¹] | self-cleavage kobs at 2500 uM GlcN6P (glucosamine-6-phosphate [5]) [s⁻¹] | self-cleavage kobs at 10000 uM GlcN6P (glucosamine-6-phosphate [6]) [s⁻¹] | self-cleavage kobs at 40 uM GlcN6P (glucosamine-6-phosphate [7]) [s⁻¹]
A52G C71A | 0.000593 ± 8.1e-05 | 3190 ± 730 | 3.52e-05 ± 1.4e-05 | 9.96e-05 ± 1.3e-05 | 0.000247 ± 3.1e-05 | 0.000466 ± 5.9e-05 | –
A52G C71U | 0.00186 ± 0.00014 | 3440 ± 380 | 7.83e-05 ± 8.6e-06 | 0.000293 ± 2.7e-05 | 0.00078 ± 0.00015 | 0.00138 ± 0.00012 | 2.74e-05 ± 6e-06
A52C U54G G63A | 1.25e-05 ± 2.6e-06 | – | – | – | < 1e-05 | < 1e-05 | –
A52U A53U | 0.000212 ± 8.7e-06 | 4210 ± 360 | – | 2.65e-05 ± 1e-05 | 8.03e-05 ± 1.2e-05 | 0.000148 ± 1.7e-05 | < 1e-05
A48U A53U | 0.000308 ± 4.1e-05 | 1960 ± 750 | – | 0.000104 ± 3.1e-05 | 0.000161 ± 2e-05 | 0.000265 ± 2.8e-05 | –
C50U G66U | 1.12e-05 ± 2.8e-06 | – | – | < 1e-05 | – | – | –
C50A C68G | 5.05e-05 ± 1.7e-05 | – | 6.35e-05 ± 1.2e-05 | 8.11e-05 ± 1.6e-05 | 5.89e-05 ± 1e-05 | – | 2.54e-05 ± 1e-05
C50A C68U | 1.77e-05 ± 3.7e-06 | – | – | – | – | – | –
C50A C68A | 3.68e-05 ± 1.1e-05 | – | 3.75e-05 ± 1.4e-05 | – | 4.65e-05 ± 1.7e-05 | – | –
U49G U56A | 0.000478 ± 0.00021 | – | – | 0.000105 ± 1.9e-05 | 0.000173 ± 4.1e-05 | 0.000466 ± 9.5e-05 | –
U49G U56C | 0.000112 ± 1.1e-05 | – | – | 7.28e-05 ± 2.5e-05 | 0.000127 ± 2.5e-05 | 0.000103 ± 1.2e-05 | –
A48C C68U | 8.75e-05 ± 8.5e-06 | 1310 ± 540 | – | – | 6.35e-05 ± 1.3e-05 | 7.54e-05 ± 1.1e-05 | < 1e-05
C50U U54A C70U | 3.48e-05 ± 1e-05 | – | – | 6e-05 ± 2.4e-05 | 2.99e-05 ± 1.5e-05 | – | –
U49A C67A | 1.28e-05 ± 1.6e-06 | – | – | – | – | – | –
C50U A64C | < 1e-05 | – | < 1e-05 | < 1e-05 | – | < 1e-05 | –
A52G G59A | < 1e-05 | – | – | – | – | – | < 1e-05
C50U U65G | < 1e-05 | – | – | – | – | – | < 1e-05
U49A C71U | 1.56e-05 ± 3.2e-06 | – | – | < 1e-05 | – | – | –
U49G U55G | 0.000836 ± 7.3e-05 | 1400 ± 250 | 8.7e-05 ± 1.8e-05 | 0.000247 ± 5e-05 | 0.000582 ± 6.3e-05 | 0.000687 ± 9.4e-05 | –
